The record followed here is the DeepSol protein solubility set.

This series is described as follows: soluble on expression in E. coli; label from the status in PepcDB or PDB records.
Consider “MKQEFTRIAVKVGSNVLARRDGTLDVTRMSALVDQIAELNKSGVEIILISSGAVASGRSEIHPQKKLDSVDQRQLFSAVGQAKLINRYYELFREHGIAVGQVLTTKENFSTRRHYLNQKNCMTVMLENGVIPIVNENDTISVSELMFTDNDELSGLIASMMDAQALIILSNIDGIYNGSPSDPASAVIREIEHGKDLSNYIQATKSSFGRGGMLTKTNIARKVADEGITVIIANGKRDNILVDLLQQPDDTVCTRFIPSTEAVSSVKKWIAHSEGFAKGEIHINECATDILSSEKAASILPVGITHIEGEFEKDDIVRIMDFLGNQVGVGKANCDSAQAREAMGKHGKKPVVHYDYLYIE”, for which the “soluble on expression in E. coli” value was “not soluble”. The result for “MKQFGLAAFDELKDGKYNDVNKTILEKQSVELRDQLMVFQERLVEFAKKHNSELQASPEFRSKFMHMCSSIGIDPLSLFDRDKHLFTVNDFYYEVCLKVIEICRQTKDMNGGVISFQELEKVHFRKLNVGLDDLEKSIDMLKSLECFEIFQIRGKKFLRSVPNELTSDQTKILEICSILGYSSISLLKANLGWEAVRSKSALDEMVANGLLWIDYQGGAEALYWDPSWITRQL” reads “soluble”; that for “MKQIKWWLLAVLLVVGLTGCGSQTTKKQATQQAASTKKISPYVNQQTPTFYVHGFQGSAKSTNTLIAHAEKTAHAHKVLVATVSTSGQVTLTGKWRGRVRNPIIQVVFKNNLAQYDQQSAWLAKVITTVQQQHAFKHYNIVAHSAGCVASVNMLMTQQTTTFPKINKLVTIAGPFDGVVGEDDVANQNSFLTSGQPKYLHAAYELLAAKRNNFPKNVQLLNIVGTLNDGSHSDSLVTNVSARSIKYLLRGRDVDYTEKDFYGAHAQHSQLHENAKVALAVDRFLWHR”, “not soluble”. To “MKQIYFGGGCFWGTQKYFDLIKGVQKTSVGYLNSNMKNPTYEQVCSGQTNAVEAVFVEYDENKVSLNELIDAFFKVIDPTIRNRQGNDIGTQYRTGVYWVDPQDEQLITQKFRELQANYPKPIVTENRAMENYFLAEEYHQDYLKKNPHGYCHIKFD” belongs “soluble”; to “MKQPPLEDQYQMFGSIALSAFGAELLRHSLLPELLGKDAASLLYWAGKQLARRYPLGTLDDVAVFFERAGWGELSTGEERNDELYIELSGPIIAARFSLYGSCSFQLEAGFLAQQIEQQKRFVTEAVELPPKRDGKARILVKWDRKQAIE”, “not soluble”. Consider “MKQVPPAAPVAPWLGGKKRLHPLILERIEAIPHRAYVEPFVGMGGIFLRRRFRPRLEVMNDRNGEIINLFRILQRHYPQLLEIMRFQICSRREFDRLRLTDPATLTDLERAARFLYLQRLSFGGKPNGSFGISPGNGPLFSLARLEPLLDAARTRLDGVVFECLDWADLIPRYDTAETLFYLDPPYFGGENDYGKGLFDRAQFARIAEILGSLKGAFLLSINDTPEIRALFGRFHLEPVRLNYSVSAAGSTEAQELLVSNRERIATLL”, for which the “soluble on expression in E. coli” value was “not soluble”. To “MKRALFVAEKNDVAKGVAAILSNGTANRREGRSKFNKIYTLNTELFGQQTAISVTSVSGHMMNFQFHENMSNWQTASMVELFRAPVRHVVTPEMKLIEQTLREQAQRHDILVVWTDCDREGEAIGAEIVKVCRDSNRRLDIFRARFSEITKAAITRAARNLIRLDEKTVAAVDCRSELDLRIGSAFTRLQTLHLRNRFRDLLGQNDTSQVISYGSCQFPTLGFVTDRYKMIENFVSEPFWKLIVEHTRESHKVEFLWDRNRLFDRDTVDILHDECKETKEAHVEKVAKKPKSKWRPQALDTVELEKLGISKLRMSAKQTMQVAEKLYSKGFISYPRTETNKFPAGLNLTPLVQQQTQSNIWGDFANEVLQNGVNPRNGRKSDEAHPPIHPLKFTEKHQLQGDDWKVYELVVRHFLACVSQDAQGEETMVNLTVGTEKFHASGLRIRDMGYLKVYVYEKWGNRLLPTYTEGERFTDFELKIGDGKTQAPDFLTEADLISLMDKYGIGTDATHAEHIEKIKTREYIGVRPDGKLIPSFLGLALVDGYDDMGFAMSKPDLRANLEIGLKEICDGRRQKQEVLDEQIGKYRAIFVESERKIGVLSQSLQRYLDKNNQAGGGPGGPGGGGGPPRGPGGGGGGGPTGPPAPPKPPAKPRGRPPRKSISPAVKNGHDDPENDTIVTLSEVFGSMSNPKPARKPRAPRKSAAPKEQEEEEEVFCQCPEPMRAVTKVVQKEGPNKGKKFYTCSLPYTSSEKCNFFKWA” belongs “not soluble”; to “MKRANAVKLIVGKETHEKLKELAIVAAKCWNEVNWLRMQQFKEGERVDFSKTEKEVYEKYKQILKVNTQQVARKNAESWRSFFSLIEEKKGKLPKWFKPRPPGYWKDKSGKYKMLIIIRNDRYEIDEEKRIIYLKDFKLSLSFNGKLKWRGKQGRLEIIYNEARRSWYAYIPVEVQNDVKAEDKLKASIDLGIINLATVYVEDGSWYIFKGGSVLSQYEYYSKRISVAQKTLARHKQGRSREMKLLHEKRKRFLKHALNSMVRKIMEEFKNKGVGEIAIGYPKEISKDHGNKLTVNFWNYGYIIRRFEGVGEELGVKVVKVDEAWTSKTCSLCGEAHDDGRIKRGLYRCLRIGKVINADLNGAINILHIPESLGAGSRGQLTVRDRGNGLKTQPAVYRWTNGAGWVSSPTSYEVMKMKAVNCKPMNRHKGTFTLLEHHHHHH”, “not soluble”; to “MKRCDLHIHTVPSVSDREFTYDKEILSDYVAKTKLDVIAITNHNLFDYAQFQEIKDILPQIVVLPGIEVDLEDGHILVIANNDDRTLFDFNSKCEEIKNLIKSEADNITYDRFVGIFGDLSKYLLIPHYEKEPKLRKDILEKLGRNIIAGEVSSVKKFIYMEKERAGLTPVYFSDFRIEKGITPDKYPVSHTFFDVDEVNIKTLKLCLMDKTKVSLTSEEGIKLFPIFPNGQKLSTGLNIMYGKRSTGKTFTLDAIASRFNGKAKYIKQFELLNTNRNDSEQFESDMKVRQEESAENYLREFSDVVTDMLKTCSSDEDDIKLQKYLDAVKSSAQQSNVNDVFSKSKLFNESDFKERSCDEIKELINATQTLLESQLYKKIINKHLSEISLKALLKDLIELYLEGNAANQYVKEVNNMIKMVKESLQLKSAAPRIPDIDLYQYFINKKKREVFAQIAMSVKKSRTISTEKAGHFTVSVSARPFMNATDLKTVRLTQVSLTNAFKKYENPVQYLNELKAAGVEINRIYKLFAAIDYKILNSSGLPVSGGERSEFNFLQKIKDAILCDILIIDEPESSFDNIFLKNEVNKFIKEMAENMPVIISTHNNTIGSSIKPDYILYTEKKMEADGAHFKIYSGYPTAKELRDVDGNTIENYEITLNSLEAGEQAYSERKDIYETLKN”, “not soluble”.

Take “MKREDLLRHLAETEVWDMIVIGGGATGLGTAVEAAGRGYRTLLLEQGDFAQGTSSRSTKLIHGGVRYLQQGNLTLVLEALRERGLLIRNAPHLVHNLSFVVPLYDWWEGPFYGIGLKLYDVLAGKLGLGPSRLLSREETLGHIPTVEPHGLRGGVIYHDGQFDDSRLAISLALTLADLGGVALNHFPVTGIISRDGLVAGVEARDRETGGAFRIMGRAVINAAGPFVDGVRRLADPAARDLIAPSQGVHLVLDGSFLPGDSAIMVPHTDDGRVLFAVPWHGRTVVGTTDTPIPAAGLEPRPLPEEIDFLLSHAARYLTRHPERRDVLSTFAGIRPLVRSDSGGDTASLSRDHTLLVEGSGLVTIAGGKWTTYRKMGEDTVTAAAQVAGLDHRPSVTETLRIHGWQEDATEGPLQVYGSDAAALEQLLRENAAWREPLHPALPYCAGEVVWGVRHEWARTVEDVLARRTRALLLDARAAVAAAPRVAELMARELGRDSDWQAAQVAAFTHLARGYLPELEHHHHHH”: the “soluble on expression in E. coli” value was “not soluble”.

As to “MKRFLLLLCALLSFSALAAPKADLWPYWQQSNGVNQTSISHLEWQQLLDSYLVTRGDNTLFRYNQVSFADKTKLKQYIQRLASLNPLQYRQAEQYAYWVNLYNALTVHLILDNYPITSITKLGGLFSFGPWDQGVIIINGKSLTLNDIEHRILRPIWQDPRTHYAVNCASLGCPNLQTQAFTAENTQTLLESAAKTFINSKKGVSIEGDTAKISSIYEWFAVDFGGEKEVFNHIRKYAPQYNHFSGRVKYDYDWSLNQADLEHHHHHH”, the “soluble on expression in E. coli” value was “not soluble”. The result for “MKRLEVSNQAKLPTQFGEFYIQCFREKGSNGSKDHLVVFTPNFSQNPLVRLHSECLTGDALGSQKCDCGGALQMALERISKEGGLVIYLRQEGRGIGLFNKVNAYALQDKGYDTIQANEMIGFKDDERDYSVAGEILEYYRIKKMRLLTNNPKKIAALEKYAEVTRESLIVCANEHNQGYLEVKKLKMGHLLLEHHHHHH” reads “soluble”. The result for “MKRLLLSAAILSSMALFNVNAQELKTSADMKGSFKKNVVLEVFTAEWCGYCPGGKERIAKAIEMLDDEYKERVFQTFVHYNDGISKKWPRVGQLFIALDQTLGIPGFPTFSVCRMEKKGENLSIGAPIAIKNKIMKGFGDGTAPAEVNLKLTKGATPEDVCTATFTGKVDADLIGKPLMLTAYVLKNNMKPINPQNGAGDGYLHQHTVLMILSTDVKGDALNIAADGSFTIKKEFKLDGFEIKDTDVLAFVHHPMSNAENHSIINAGQESLDKAEPTATEQIVATPSVKAYVQNGKIVVEEEYSKMEVFNATGQLVKNESLVPGVYVVRITANGVMYFLKVLVPMAGDPLEHHHHHH” reads “soluble”; that for “MKRLLLYVHFNKYNRVSSHVVYQLTQMRSLFSKVIFISNSQVADADVKMLREKHLIDDFIQRQNSGFDFAAWRDGMVFVGFDELVTYDSVTTMNDTCFGPLWEMYSIYQEFETKTTVDFWGLTNNRATKSFREHIQSYFISFKASVLRSTAFRDFWENIKEYQDVQKVIDQYETKVTTTLLDAGFQYDVVFDTTKEDASHMLHADFSYYNPTAILNHRVPFIKVKAIDNNQHITPYLLNDIQKNSTYPIDLIVSHMSEINYPDFSYLLGHKYVKKRERVDLKNQKAAVHLHVFYVDLLEEFLTAFKQFHFSYDLFITTDSDDKKAEIEEILSANSQEAQVFVTGNIGRDVLPMLKLKNYLSTYDFVGHFHTKKSKEADFWAGQSWREELIDMLVKPADNILAQLQQNPKIGLVIADMPTFFRYNKIVDAWNEHLIAPEMNTLWQKMGMTKKIDFNAFHTFVMSYGTFVWFKYDALKPLFDLNLTDDDVPEEPLPQNSILHAIERLLIYIAWNEHYDFRISLEHHHHHH”, “not soluble”. To “MKRMIVRMTLPLLIVCLAFSSFSASARAASEEKYWDHWIERHAQPLDASNASNKDLRFLKKVLKGKRIVQLGETTHGAGEINATKVRMIKYLHEELGYDVLAFESGFPDTNASYLNMDQLTPKSTMKNSIYAVWHTEDVVELFDYMKEQKEKGDPLILTGFDIQSMKNSFNVAATQWVKAVDPEKAELLSQSENDFSTLVTDSNTFDEFSQKKEKLVKNYQKLIKFTKTHASELKENLPKEPKAYEMFMHSLQLRIDVMETYMLEEMKEKLEEYPENIEDFSFFMRDRMMAEQFQWVADTLYPKKKIIVWGHNYHLRKQNTKMIKDWVQLNGPNMGDYLPERLKKQTYTIGIYAYSGASLDSSDNKTVKPVTSPPPSGSLEALLKAADRPAVFVDFLHTKNKKGTSWMYTPRTALYWGYMEEQMILKEQYDGVIWLEHITPSVIIKLEHHHHHH” belongs “not soluble”; to “MKRPDYRTLQALDAVIRERGFERAAQKLCITQSAVSQRIKQLENMFGQPLLVRTVPPRPTEQGQKLLALLRQVELLEEEWLGDEQTGSTPLLLSLAVNADSLATWLLPALAPVLADSPIRLNLQVEDETRTQERLRRGEVVGAVSIQHQALPSCLVDKLGALDYLFVASKPFAERYFPNGVTRSSLLKAPAVAFDHLDDMHQAFLQQNFDLPPGSVPCHIVNSSEAFVQLARQGTTCCMIPHLQIEKELESGELINLTPGLLQRRMLYWHRFAPESRMMRKVTDALLEYGHKVLRQD”, “not soluble”; to “MKRRRKSGEKVQMHRFALPLCYGSEAPYYYYEVAPHEREERFHLTSELCVMDDEHYFIRGCLEIPIIDYHENFIWTVWVSLSKESYDEVLEKWDERGRENSDPYFGWLSVEMPVYPETLNLKTNVHIREVGTAPYVELEPTEHPLAIEQRNGITLERVKEIQEMIQRHS”, “not soluble”.
